Measured values from patent US9364516B2, “Treatment of fibrosis-related disorders using fibronectin binding proteins and polypeptides” (priority 2010, dated 2016).

Columns and labels:
[1] = tested on: left carotid artery of FVB mice; experiment: Carotid ligation model, quantitative immunohistochemistry; assay type: in vivo, mouse
Method: Sections selected from the first millimeter of the carotid artery in each group were used for immunohistochemistry (IHC). Endogenous peroxidase activity was blocked with 3% H2O2, followed by incubation with Dako serum-free blocking solution (Dako; Glostrup, Denmark). The primary antibodies used were: polyclonal anti-fibronectin (Chemicon/Millipore, Billerica, Mass.), polyclonal anti-collagen type I (LF-67; a gift from Dr. Fisher, NIH, Bethesda, Md.), monoclonal anti-proliferating cell nuclear antigen (PCNA) (Sigma, St. Louis, Mo.), polyclonal anti-smooth muscle myosin heavy chain (SMMHC) (Biomedical Technologies Inc., Stoughton, Mass.), monoclonal smooth muscle-actin (SM-actin) (Dako), anti-leukocyte common antigen, CD45 (BD Pharmingen, San Jose, Calif.), monoclonal anti-intercellular adhesion molecule-1 (ICAM-1) (BD Pharmingen), and polyclonal anti-vascular cell adhesion molecule-1 (VCAM-1) (Santa Cruz Biotechnology, Santa Cruz, Calif.). Antigen retrieval for anti-fibronectin and anti-collagen type I antibodies was performed by incubating sections with proteinase K in 0.05M Tris-HCL buffer. Antigen retrieval for CD 45 antibody was performed by incubating sections with 10 mM citrate buffer (pH=6) at 120° C. Sections were then incubated with appropriate biotinylated secondary antibodies followed by avidin-biotin immunoperoxidase system (Vector Laboratories, Burlingame, Calif.). Liquid DAB Substrate Chromogen system (Dako) or Vector Red (Vector) was used for detection. PCNA, CD45, ICAM-1, and VCAM-1-immunostained sections were counterstained with hematoxylin.
Quantitative IHC analysis was performed using Image-Pro Plus software. Data from 3-5 mice were averaged, and the average values ±s.e.m. determined. For fibronectin, collagen type I, SMMHC, and SMα-actin, color digital images were captured using a 40× objective and transformed into gray scale. Sixteen fields of view of equal size per section in the media or adventitia were randomly chosen, and the mean of the optical densities from the sixteen fields of view was determined. Three sections were analyzed per animal. For quantitative comparison of leukocyte infiltration and cell adhesion molecule expression, images were acquired using a 60× objective. The CD45, ICAM-1, and VCAM-1-positive areas were obtained using an automated programmed segmentation procedure in ImagePro. The intima plus media or adventitial regions were traced manually. The percent of the positively stained area to the total traced area was determined. For evaluation of proliferating cells, the percent of PCNA (+) cells to total cells was determined by counting cell numbers in PCNA-stained sections that had been counterstained with hematoxylin. The percent positive cells is reported as the proliferation index. To determine the SMC density, sections were stained with hematoxylin, and cells present in the media were counted. The data is expressed as number of cells/μm^2.
Blood flow in the left carotid artery of 10-week-old FVB/NJ (FVB) mice was reduced by ligating the external and internal carotid arterial branches as described (Korshunov et al., “Flow-Induced Vascular Remodeling in the Mouse: A Model for Carotid Intima-Media Thickening,” Arterioscler. Thromb. Vasc. Biol. 23:2185-2191 (2003), which is hereby incorporated by reference in its entirety). Mice were anesthetized with an intraperitoneal injection of ketamine (80 mg/kg) and xylazine (5 mg/kg) as described in the above-cited referenced. The left common carotid artery was dissected free of the surrounding connective tissue and 50 μL of F-127 pluronic gel (BASF) containing 20 μmol/L pUR4 or III-11C was applied around the carotid artery. […]

[2] = tested on: fibronectin binding to the cell surface; experiment: Inhibition of fibronectin binding to the cell surface; assay type: cell-based
mice = experiment: Dimethylnitrosamine (DMN) induced liver fibrosis; assay type: in vivo, mouse
Method: Collagen content in the liver of mice was measured by quantitating hydroxyproline levels (FIG. 17A). Treatment groups were DMN treated mice that were post treated with pUR4 or control III-11C peptide, DMN without peptide, and saline treated control mice. Fibronectin content in the liver of mice was assessed by immunohistochemistry of liver sections using a fibronectin antibody (FIG. 17B). Inflammatory cell infiltration into the liver was assessed by quantitating the CD45 positive cells per unit area (FIG. 17C). Sequential model (FIGS. 17A, 17B); Simultaneous model (FIG. 17C). n=3 in each group.
Liver fibrosis was induced in mice by administration of dimethylnitrosamine (DMN) for 4 weeks as previously described (Yoshida et al., “SOCS1 is a Suppressor of Liver Fibrosis and Hepatitis-Induced Carcinogenesis,” J. Exp. Med. 199:1701-1707 (2004)). This is a well established model of liver fibrosis and some of the key pathological features that develop in DMN induced fibrosis are similar to those seen in humans with liver fibrosis (Wu et al., “Animal Models of Liver Fibrosis,” Scand. J. Gastroenterol. 31:1137-1143 (1996); Jenkins et al., “A Dimethylnitrosamine-Induced Model of Cirrhosis and Portal Hypertension in the Rat,” J. Hepatol. 1:489-499 (1985), which are hereby incorporated by reference in their entirety). pUR4 was either administered for the last 10 days of DMN treatment (simultaneous treatment regimen), or for 14 days following cessation of DMN treatment (sequential treatment regimen). The latter model was performed to determine whether the peptide is effective when administered after fibrosis is established.
Dimethylnitrosamine (DMN) will be used to induce liver injury and fibrosis in mice (10 mg/kg body weight, 3×/week for 4 weeks) as described in Example 16. The experimental groups will include: 1) DMN alone; 2) DMN+pUR4 peptide; and 3) DMN+control peptide. Non DMN-treated control animals will receive i.p. injections of 0.9% saline plus: 4) pUR4; or 5) the control peptide. Two treatment strategies will be used, as described in Example 16. In the simultaneous treatment strategy, peptides will be administered daily during the last 10 days of DMN treatment. This will allow assessment of pUR4 on preventing fibrosis development. In the sequential treatment strategy, DMN will be injected for 4 weeks. Peptides will then be administered daily for 14 days in the absence of DMN. This will allow assessment of pUR4 on preventing fibrosis progression.

fibronectin = fibronectin (Homo sapiens, UniProt P02751); conditions: cited from earlier work
[3] = tested on: cell spreading or adhesion to collagen or fibronectin; conditions: cited from earlier work
[4] = animals treated in the absence of injury for up to 2 weeks
[5] = sequential treatment: 14 days following cessation of DMN, 20 mg/kg/d

Sequence of fibronectin (P02751 32-2477): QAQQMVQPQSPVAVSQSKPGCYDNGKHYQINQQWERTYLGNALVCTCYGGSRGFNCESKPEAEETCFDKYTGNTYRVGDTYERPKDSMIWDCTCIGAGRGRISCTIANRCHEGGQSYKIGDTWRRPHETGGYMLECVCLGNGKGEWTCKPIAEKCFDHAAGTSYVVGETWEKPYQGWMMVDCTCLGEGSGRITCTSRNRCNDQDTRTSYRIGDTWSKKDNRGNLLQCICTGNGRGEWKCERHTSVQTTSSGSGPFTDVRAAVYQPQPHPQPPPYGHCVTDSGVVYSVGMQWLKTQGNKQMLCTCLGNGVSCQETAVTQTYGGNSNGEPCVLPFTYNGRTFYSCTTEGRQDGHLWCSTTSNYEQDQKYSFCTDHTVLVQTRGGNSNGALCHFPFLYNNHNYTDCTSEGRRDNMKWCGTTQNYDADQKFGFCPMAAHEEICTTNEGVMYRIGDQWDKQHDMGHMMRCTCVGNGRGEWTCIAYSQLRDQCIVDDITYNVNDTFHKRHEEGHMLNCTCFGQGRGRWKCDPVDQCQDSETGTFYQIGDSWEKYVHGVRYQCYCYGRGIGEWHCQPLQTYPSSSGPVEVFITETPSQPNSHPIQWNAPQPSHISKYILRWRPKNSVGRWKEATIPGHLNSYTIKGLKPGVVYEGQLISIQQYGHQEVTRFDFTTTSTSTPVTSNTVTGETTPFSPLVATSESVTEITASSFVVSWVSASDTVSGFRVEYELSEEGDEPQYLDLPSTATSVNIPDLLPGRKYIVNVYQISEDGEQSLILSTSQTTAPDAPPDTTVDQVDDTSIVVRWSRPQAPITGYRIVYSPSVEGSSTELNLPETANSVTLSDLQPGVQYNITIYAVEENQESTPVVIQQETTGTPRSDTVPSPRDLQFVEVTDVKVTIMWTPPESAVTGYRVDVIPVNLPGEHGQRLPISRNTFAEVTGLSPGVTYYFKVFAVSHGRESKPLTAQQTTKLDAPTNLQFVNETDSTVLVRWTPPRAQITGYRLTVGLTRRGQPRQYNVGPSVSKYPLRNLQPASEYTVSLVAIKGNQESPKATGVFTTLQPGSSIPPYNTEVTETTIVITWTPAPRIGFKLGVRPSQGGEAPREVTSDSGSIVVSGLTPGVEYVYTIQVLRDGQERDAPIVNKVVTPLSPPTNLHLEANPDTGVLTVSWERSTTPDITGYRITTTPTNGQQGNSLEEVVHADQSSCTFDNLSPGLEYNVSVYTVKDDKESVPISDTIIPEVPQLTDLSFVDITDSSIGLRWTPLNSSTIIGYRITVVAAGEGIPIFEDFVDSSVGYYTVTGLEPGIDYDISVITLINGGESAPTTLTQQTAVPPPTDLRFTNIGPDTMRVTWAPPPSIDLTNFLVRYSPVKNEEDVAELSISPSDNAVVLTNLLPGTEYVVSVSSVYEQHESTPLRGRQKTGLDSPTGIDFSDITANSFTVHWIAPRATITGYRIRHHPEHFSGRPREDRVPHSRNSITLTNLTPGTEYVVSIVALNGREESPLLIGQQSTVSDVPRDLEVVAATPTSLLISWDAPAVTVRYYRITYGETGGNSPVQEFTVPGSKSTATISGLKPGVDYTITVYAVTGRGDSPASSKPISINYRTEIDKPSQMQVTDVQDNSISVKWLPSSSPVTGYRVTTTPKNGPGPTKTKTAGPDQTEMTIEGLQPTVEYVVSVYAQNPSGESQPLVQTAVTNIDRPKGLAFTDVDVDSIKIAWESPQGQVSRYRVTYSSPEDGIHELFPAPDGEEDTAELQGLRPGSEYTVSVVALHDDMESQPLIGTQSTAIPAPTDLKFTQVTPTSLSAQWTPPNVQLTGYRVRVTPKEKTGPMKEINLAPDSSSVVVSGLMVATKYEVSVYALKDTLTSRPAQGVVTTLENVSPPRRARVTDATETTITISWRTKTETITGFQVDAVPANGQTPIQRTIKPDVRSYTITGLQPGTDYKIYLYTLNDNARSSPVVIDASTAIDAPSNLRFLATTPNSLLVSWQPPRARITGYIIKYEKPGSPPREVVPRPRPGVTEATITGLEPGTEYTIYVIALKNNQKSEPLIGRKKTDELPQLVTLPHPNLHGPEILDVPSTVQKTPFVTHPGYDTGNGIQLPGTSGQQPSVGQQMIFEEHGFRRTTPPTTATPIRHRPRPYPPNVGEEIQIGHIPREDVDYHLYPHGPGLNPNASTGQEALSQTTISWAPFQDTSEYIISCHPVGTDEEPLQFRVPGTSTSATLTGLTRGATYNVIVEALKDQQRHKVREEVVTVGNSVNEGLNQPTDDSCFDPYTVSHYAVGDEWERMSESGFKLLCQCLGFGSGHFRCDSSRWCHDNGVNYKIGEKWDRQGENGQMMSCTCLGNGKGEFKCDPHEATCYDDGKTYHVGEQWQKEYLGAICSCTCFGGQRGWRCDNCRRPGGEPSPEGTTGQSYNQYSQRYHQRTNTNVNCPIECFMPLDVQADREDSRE

B1: pUR4: 49-mer peptide derived from the bacterial F1 adhesin, His tagged, SEQ ID NO:1; class I fibronectin polymerization inhibitor (peptide)
chain: MRGSHHHHHHGSKDQSPLAGESGETEYITEVYGNQQNPVDIDKKLPNETGFSGNMVETEDTKLN
modifications: His tag; Bacterial adhesin derived peptide pUR4
accumulation of collagen I and fibronectin in the media and adventitia ([1]; 7 and 14 days after surgery, vs control animals): dramatic reduction | SMC dedifferentiation (SM α-actin and SM myosin heavy chain staining in the media) ([1]; 7 days after ligation): prevented | adhesion molecule expression (ICAM-1 and VCAM-1 levels in the vessel wall) ([1]; 7 days after ligation): dramatic decrease | decrease of leukocyte (CD45) infiltration into the intima, media, and adventitia ([1]; 7 days after surgery): 80% | increased fibronectin deposition ([1]; 7 days after surgery): totally prevented | prevention of increase in cell density in the media ([1]; 7 days after surgery): 75% | cell density in the media ([1]; 7 days after surgery, ligated 6.7×10^−3, sham 5.0×10^−3): 5.3×10^−3 cells/mm^2 | reduction in cell proliferation (PCNA) in the adventitia ([1]; 7 days post ligation): 61% | reduction in cell proliferation (PCNA) in the intima-media ([1]; 7 days post ligation): 70% | fibronectin and collagen levels vs control peptide-treated animals ([1]; 14 days after surgery): still decreased | EC50 [2]: 10 nM | adverse effects (mice; [4]): do not show any adverse effects | decrease in the normal levels of ECM fibronectin or collagen I (mice; [4]): do not show | inflammation in the liver (mice; sequential treatment model): trend towards reduced | collagen I content in the liver (hydroxyproline) (mice; [5]): reduced | fibronectin content in the liver (mice; [5]): reduced | infiltration of immune cells (CD45) into the liver (mice; simultaneous treatment regimen): significantly reduced | binding to fibronectin (fibronectin): binds | inhibition of cell spreading or adhesion to collagen or fibronectin [3]: does not inhibit
